Assay results from paper doi:10.1101/2023.08.14.552755.

Legend:
[1] = target: VpOmpM1 stalk region (residues 22-107), soluble construct (Veillonella parvula); assay: crystal structure
[2] = target: VpOmpM1 (OmpM1 from Veillonella parvula), full length, expressed in E. coli (Veillonella parvula); assay: cryo-EM structure

| Substance | stoichiometry N [1] | stoichiometry N [2] |
| --- | --- | --- |
| VpOmpM1 stalk region (residues 22-107), soluble construct (domain or fragment) | 3 |  |
| VpOmpM1 (OmpM1 from Veillonella parvula), full length, expressed in E. coli (natural protein) |  | 3 |
